*1 amine or outer side, *2 acyl side, *3 side chain or, on linkers, in order; H or OH if unused. Bridges are numbered along the chain shown (N, C = ends). Where no end group is shown, it is not given here. The star is where a group is joined. X1 = (S)‑4‑Carboxy‑4‑(17-carboxyheptadecanoylamino)butyryl, O=C(O)CCCCCCCCCCCCCCCCC(=O)N[C@@H](CCC(=O)*)C(=O)O; C20 diacid = O=C(O)CCCCCCCCCCCCCCCCCCC(=O)*; C18 diacid = O=C(O)CCCCCCCCCCCCCCCCC(=O)*; γGlu = O=C(O)[C@H](CCC(=O)[*:2])N[*:1]; AEEA = NCCOCCOCC(=O)O
T1: Amylin 3(a) receptor (human calcitonin receptor (CTa) with RAMP-3) (human, UniProt P30988 25-474; O60896 24-148, limits assumed)
T1 sequence (looked up) 1: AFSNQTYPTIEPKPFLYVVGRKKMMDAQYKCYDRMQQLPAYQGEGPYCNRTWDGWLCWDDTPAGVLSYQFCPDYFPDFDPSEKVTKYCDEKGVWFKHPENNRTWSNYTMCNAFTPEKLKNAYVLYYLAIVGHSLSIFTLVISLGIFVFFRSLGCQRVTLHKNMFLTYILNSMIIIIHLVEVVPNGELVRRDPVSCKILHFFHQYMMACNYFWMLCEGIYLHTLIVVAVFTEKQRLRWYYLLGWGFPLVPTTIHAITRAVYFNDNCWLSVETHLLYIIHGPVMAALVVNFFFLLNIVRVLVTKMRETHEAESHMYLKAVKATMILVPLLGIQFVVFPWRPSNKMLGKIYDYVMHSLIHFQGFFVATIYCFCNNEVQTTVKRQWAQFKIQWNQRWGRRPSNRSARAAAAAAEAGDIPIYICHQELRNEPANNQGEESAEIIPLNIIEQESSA
T1 sequence (looked up) 2: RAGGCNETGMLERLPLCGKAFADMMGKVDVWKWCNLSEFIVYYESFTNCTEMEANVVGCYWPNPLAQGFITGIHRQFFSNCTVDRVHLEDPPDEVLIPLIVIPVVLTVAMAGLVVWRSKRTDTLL


Target: T1, Amylin 3(a) receptor (human calcitonin …)
Assay: cell-based or functional assay

| Binder | Potency Luciferase [nM] |
| --- | --- |
| {C20 diacid-γGlu-AEEA}-HHRCNTATCATQRLANFLRHSSQNFGPILPPTNVGSNTY-NH2 (disulfide 4-9; SMILES CC[C@H](C)[C@H](NC(=O)[C@@H]1CCCN1C(=O)CNC(=O)[C@H](Cc1ccccc1)NC(=O)[C@H](CC(N)=O)NC(=O)[C@H](CCC(N)=O)NC(=O)[C@H](CO)NC(=O)[C@H](CO)NC(=O)[C@H](Cc1c[nH]cn1)NC(=O)[C@H](CCCNC(=N)N)NC(=O)[C@H](CC(C)C)NC(=O)[C@H](Cc1ccccc1)NC(=O)[C@H](CC(N)=O)NC(=O)[C@H](C)NC(=O)[C@H](CC(C)C)NC(=O)[C@H](CCCNC(=N)N)NC(=O)[C@H](CCC(N)=O)NC(=O)[C@@H](NC(=O)[C@H](C)NC(=O)[C@@H]1CSSC[C@H](NC(=O)[C@H](CCCNC(=N)N)NC(=O)[C@H](Cc2c[nH]cn2)NC(=O)[C@H](Cc2c[nH]cn2)NC(=O)COCCOCCNC(=O)CC[C@H](NC(=O)CCCCCCCCCCCCCCCCCCC(=O)O)C(=O)O)C(=O)N[C@@H](CC(N)=O)C(=O)N[C@@H]([C@@H](C)O)C(=O)N[C@@H](C)C(=O)N[C@@H]([C@@H](C)O)C(=O)N1)[C@@H](C)O)C(=O)N[C@@H](CC(C)C)C(=O)N1CCC[C@H]1C(=O)N1CCC[C@H]1C(=O)N[C@H](C(=O)N[C@@H](CC(N)=O)C(=O)N[C@H](C(=O)NCC(=O)N[C@@H](CO)C(=O)N[C@@H](CC(N)=O)C(=O)N[C@H](C(=O)N[C@@H](Cc1ccc(O)cc1)C(N)=O)[C@@H](C)O)C(C)C)[C@@H](C)O) | 0.1 |
| {C18 diacid-γGlu-AEEA-AEEA}-CNTATCATQRLANFLHHSSNNFGPILPPTNVGSNTY-NH2 (disulfide 1-6) | 0.04 |
| CNTATCATQRLANFLHHSSNNFGPILPPTNVGSNTY-NH2 (disulfide 1-6; not fully specified (N-terminus); printed as N-alpha-[2-(2-{2-[2-(2-{2-[(S)-4-Carboxy-4-(19-carboxyheptadecanoylamino)butyrylamino]ethoxy}ethoxy)acetylamino]ethoxy}ethoxy)acetyl]-[His17]-pramlintide (2-37)) | 0.07 |
| {C20 diacid-γGlu-AEEA}-HHRCNTATCATQRLANFLRHSSNNFGPILPPTNVGSNTY-NH2 (disulfide 4-9; SMILES CC[C@H](C)[C@H](NC(=O)[C@@H]1CCCN1C(=O)CNC(=O)[C@H](Cc1ccccc1)NC(=O)[C@H](CC(N)=O)NC(=O)[C@H](CC(N)=O)NC(=O)[C@H](CO)NC(=O)[C@H](CO)NC(=O)[C@H](Cc1c[nH]cn1)NC(=O)[C@H](CCCNC(=N)N)NC(=O)[C@H](CC(C)C)NC(=O)[C@H](Cc1ccccc1)NC(=O)[C@H](CC(N)=O)NC(=O)[C@H](C)NC(=O)[C@H](CC(C)C)NC(=O)[C@H](CCCNC(=N)N)NC(=O)[C@H](CCC(N)=O)NC(=O)[C@@H](NC(=O)[C@H](C)NC(=O)[C@@H]1CSSC[C@H](NC(=O)[C@H](CCCNC(=N)N)NC(=O)[C@H](Cc2c[nH]cn2)NC(=O)[C@H](Cc2c[nH]cn2)NC(=O)COCCOCCNC(=O)CC[C@H](NC(=O)CCCCCCCCCCCCCCCCCCC(=O)O)C(=O)O)C(=O)N[C@@H](CC(N)=O)C(=O)N[C@@H]([C@@H](C)O)C(=O)N[C@@H](C)C(=O)N[C@@H]([C@@H](C)O)C(=O)N1)[C@@H](C)O)C(=O)N[C@@H](CC(C)C)C(=O)N1CCC[C@H]1C(=O)N1CCC[C@H]1C(=O)N[C@H](C(=O)N[C@@H](CC(N)=O)C(=O)N[C@H](C(=O)NCC(=O)N[C@@H](CO)C(=O)N[C@@H](CC(N)=O)C(=O)N[C@H](C(=O)N[C@@H](Cc1ccc(O)cc1)C(N)=O)[C@@H](C)O)C(C)C)[C@@H](C)O) | 0.3 |
| {C20 diacid-γGlu-AEEA}-HHRCNTATCATQRLANFLHHSSQNFGPILPPTNVGSNTY-NH2 (disulfide 4-9; SMILES CC[C@H](C)[C@H](NC(=O)[C@@H]1CCCN1C(=O)CNC(=O)[C@H](Cc1ccccc1)NC(=O)[C@H](CC(N)=O)NC(=O)[C@H](CCC(N)=O)NC(=O)[C@H](CO)NC(=O)[C@H](CO)NC(=O)[C@H](Cc1c[nH]cn1)NC(=O)[C@H](Cc1c[nH]cn1)NC(=O)[C@H](CC(C)C)NC(=O)[C@H](Cc1ccccc1)NC(=O)[C@H](CC(N)=O)NC(=O)[C@H](C)NC(=O)[C@H](CC(C)C)NC(=O)[C@H](CCCNC(=N)N)NC(=O)[C@H](CCC(N)=O)NC(=O)[C@@H](NC(=O)[C@H](C)NC(=O)[C@@H]1CSSC[C@H](NC(=O)[C@H](CCCNC(=N)N)NC(=O)[C@H](Cc2c[nH]cn2)NC(=O)[C@H](Cc2c[nH]cn2)NC(=O)COCCOCCNC(=O)CC[C@H](NC(=O)CCCCCCCCCCCCCCCCCCC(=O)O)C(=O)O)C(=O)N[C@@H](CC(N)=O)C(=O)N[C@@H]([C@@H](C)O)C(=O)N[C@@H](C)C(=O)N[C@@H]([C@@H](C)O)C(=O)N1)[C@@H](C)O)C(=O)N[C@@H](CC(C)C)C(=O)N1CCC[C@H]1C(=O)N1CCC[C@H]1C(=O)N[C@H](C(=O)N[C@@H](CC(N)=O)C(=O)N[C@H](C(=O)NCC(=O)N[C@@H](CO)C(=O)N[C@@H](CC(N)=O)C(=O)N[C@H](C(=O)N[C@@H](Cc1ccc(O)cc1)C(N)=O)[C@@H](C)O)C(C)C)[C@@H](C)O) | 0.06 |

Other lines, results leading:

| Potency Luciferase [nM] | Binder |
| --- | --- |
| 0.04 | {5‑carboxypentanoyl-γGlu}-HHHCNTATCATQRLANFLHHSSNNFGPILPPTNVGSNTY-NH2 (disulfide 4-9) [N-alpha-[(S)-4-Carboxy-4-(5-carboxypentanoylamino)butyryl]-His-His-[His1,His17]-pramlintide] |
| 0.05 | X1-HHHCNTATCATQRLANFLHHSSNNFGPILPPTNVGSNTY-NH2 (disulfide 4-9; SMILES CC[C@H](C)[C@H](NC(=O)[C@@H]1CCCN1C(=O)CNC(=O)[C@H](Cc1ccccc1)NC(=O)[C@H](CC(N)=O)NC(=O)[C@H](CC(N)=O)NC(=O)[C@H](CO)NC(=O)[C@H](CO)NC(=O)[C@H](Cc1c[nH]cn1)NC(=O)[C@H](Cc1c[nH]cn1)NC(=O)[C@H](CC(C)C)NC(=O)[C@H](Cc1ccccc1)NC(=O)[C@H](CC(N)=O)NC(=O)[C@H](C)NC(=O)[C@H](CC(C)C)NC(=O)[C@H](CCCNC(=N)N)NC(=O)[C@H](CCC(N)=O)NC(=O)[C@@H](NC(=O)[C@H](C)NC(=O)[C@@H]1CSSC[C@H](NC(=O)[C@H](Cc2c[nH]cn2)NC(=O)[C@H](Cc2c[nH]cn2)NC(=O)[C@H](Cc2c[nH]cn2)NC(=O)CC[C@H](NC(=O)CCCCCCCCCCCCCCCCC(=O)O)C(=O)O)C(=O)N[C@@H](CC(N)=O)C(=O)N[C@@H]([C@@H](C)O)C(=O)N[C@@H](C)C(=O)N[C@@H]([C@@H](C)O)C(=O)N1)[C@@H](C)O)C(=O)N[C@@H](CC(C)C)C(=O)N1CCC[C@H]1C(=O)N1CCC[C@H]1C(=O)N[C@H](C(=O)N[C@@H](CC(N)=O)C(=O)N[C@H](C(=O)NCC(=O)N[C@@H](CO)C(=O)N[C@@H](CC(N)=O)C(=O)N[C@H](C(=O)N[C@@H](Cc1ccc(O)cc1)C(N)=O)[C@@H](C)O)C(C)C)[C@@H](C)O) [N-alpha-[(S)-4-Carboxy-4-(17-carboxyheptadecanoylamino)butyryl]-His-His-[His1,His17]-pramlintide] |
| 0.3 | {C20 diacid-γGlu}-RCNTATCATQRLANFLHHSSNNFGPILPPTNVGSNTY-NH2 (disulfide 2-7; SMILES CC[C@H](C)[C@H](NC(=O)[C@@H]1CCCN1C(=O)CNC(=O)[C@H](Cc1ccccc1)NC(=O)[C@H](CC(N)=O)NC(=O)[C@H](CC(N)=O)NC(=O)[C@H](CO)NC(=O)[C@H](CO)NC(=O)[C@H](Cc1c[nH]cn1)NC(=O)[C@H](Cc1c[nH]cn1)NC(=O)[C@H](CC(C)C)NC(=O)[C@H](Cc1ccccc1)NC(=O)[C@H](CC(N)=O)NC(=O)[C@H](C)NC(=O)[C@H](CC(C)C)NC(=O)[C@H](CCCNC(=N)N)NC(=O)[C@H](CCC(N)=O)NC(=O)[C@@H](NC(=O)[C@H](C)NC(=O)[C@@H]1CSSC[C@H](NC(=O)[C@H](CCCNC(=N)N)NC(=O)CC[C@H](NC(=O)CCCCCCCCCCCCCCCCCCC(=O)O)C(=O)O)C(=O)N[C@@H](CC(N)=O)C(=O)N[C@@H]([C@@H](C)O)C(=O)N[C@@H](C)C(=O)N[C@@H]([C@@H](C)O)C(=O)N1)[C@@H](C)O)C(=O)N[C@@H](CC(C)C)C(=O)N1CCC[C@H]1C(=O)N1CCC[C@H]1C(=O)N[C@H](C(=O)N[C@@H](CC(N)=O)C(=O)N[C@H](C(=O)NCC(=O)N[C@@H](CO)C(=O)N[C@@H](CC(N)=O)C(=O)N[C@H](C(=O)N[C@@H](Cc1ccc(O)cc1)C(N)=O)[C@@H](C)O)C(C)C)[C@@H](C)O) [N-alpha-[(S)-4-Carboxy-4-(19-carboxynonadecanoylamino)butyryl]-[Arg1,His17]-pramlintide] |
